The target in data set [1] is T1, WT LysRS(ΔN65) (human, UniProt Q15046 66-597). Put plainly: fluorescence anisotropy; 1 mM Mg2+; FA: 20 mM Tris-HCl pH 8, 15 mM NaCl, 35 mM KCl, 1 mM MgCl2, 20 nM RNA (30 nM per supplement), temperature not stated; XL-SHAPE: 20 mM HEPES pH 7.5, 60 mM NaCl. The conditions noted are these: protein: recombinant; tags: His; chain copies: 2; label: 3' fluorescein (FTSC); tRNA fold. For orientation: Fluorescence polarisation rises when a labelled molecule tumbles more slowly, as on binding a larger partner.

Data set [2] addresses T2, S207D LysRS(ΔN65) (human, UniProt Q15046 66-597, S207D). The description is as above. Conditions: protein: recombinant; tags: His; chain copies: 2; label: 3' fluorescein (FTSC); tRNA fold.
In data set [3] the target is T1, WT LysRS(ΔN65). The data set can be described thus: fluorescence anisotropy; 1 mM Mg2+. Conditions: protein: recombinant, tags: His, chain copies: 2.
In data set [4] the target is T2, S207D LysRS(ΔN65). Put plainly: fluorescence anisotropy; 1 mM Mg2+. Conditions: protein: recombinant, tags: His, chain copies: 2.
Where [5] appears, read: label: 3' fluorescein (FTSC) on RNA, 21-nt DNA annealed to folded RNA, 1.5x DNA.
[6] abbreviates: label: 3' fluorescein (FTSC) on RNA, 29-nt DNA annealed, extends into TLE stem, 1.5x DNA.
[7] abbreviates: label: 3' fluorescein (FTSC) in FA, folded domain with TLE hairpin.
Setting [8] is: label: 3' fluorescein (FTSC) on RNA, 18-nt DNA annealed to PBS of folded RNA, 1.5x DNA.
The mark [9] stands for this setting: label: 3' fluorescein (FTSC) on RNA, 24-nt DNA annealed, extends into TLE stem, 1.5x DNA.

T1 sequence (Q15046 66-597, stated change not applied): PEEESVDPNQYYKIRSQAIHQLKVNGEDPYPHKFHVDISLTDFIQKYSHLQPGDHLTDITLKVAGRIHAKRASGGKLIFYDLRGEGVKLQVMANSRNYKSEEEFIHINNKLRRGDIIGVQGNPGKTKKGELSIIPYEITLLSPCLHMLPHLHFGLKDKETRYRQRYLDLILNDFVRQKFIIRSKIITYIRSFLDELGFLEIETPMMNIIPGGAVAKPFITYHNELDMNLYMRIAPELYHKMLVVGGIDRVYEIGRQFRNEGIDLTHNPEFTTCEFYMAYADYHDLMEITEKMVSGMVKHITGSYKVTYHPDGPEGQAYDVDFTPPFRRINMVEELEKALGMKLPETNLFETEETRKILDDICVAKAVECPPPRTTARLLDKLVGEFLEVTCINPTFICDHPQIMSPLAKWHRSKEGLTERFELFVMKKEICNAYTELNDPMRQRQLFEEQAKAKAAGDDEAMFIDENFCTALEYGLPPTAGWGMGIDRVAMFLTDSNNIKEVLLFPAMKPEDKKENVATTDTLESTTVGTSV
T2 sequence (Q15046 66-597 S207D): as the sequence (Q15046 66-597, stated change not applied) above, with S142D counted along it

B1: tRNALys3 (structured_RNA)
RNA: GCCCGGAUAGCUCAGUCGGUAGAGCAUCAGACUUUUAAUCUGAGGGUCCAGGGUUCAAGUCCCUGUUCGGGCGCCA
modifications: unmodified transcript
As to B1, the Kd stood at 407 ± 33 nM with WT LysRS(ΔN65) [1] and 470 ± 190 nM in the data set with S207D LysRS(ΔN65) [2].

B2: PBS/TLE105:antiPBS18+3 (mixed)
RNA: GGGCUCUGGUAACUAGAGAUCCCUCAGACCCUUUUAGUCAGUGUGGAAAAUCUCUAGCAGUGGCGCCCGAACAGGGACUUGAAAGCGAAAGUAAAGCCAGAGCCC
DNA: GTCCCTGTTCGGGCGCCACTG
For B2, the Kd was determined as 488 ± 171 nM with WT LysRS(ΔN65) [3] (setting [5]) and 305 ± 75 nM in the data set with S207D LysRS(ΔN65) [4] (setting [5]).

B3: PBS/TLE105:antiPBS18+11 (mixed)
RNA: GGGCUCUGGUAACUAGAGAUCCCUCAGACCCUUUUAGUCAGUGUGGAAAAUCUCUAGCAGUGGCGCCCGAACAGGGACUUGAAAGCGAAAGUAAAGCCAGAGCCC
DNA: GTCCCTGTTCGGGCGCCACTGCTAGAGAT
B3: the dissociation constant (Kd) in the data set with WT LysRS(ΔN65) [3] (setting [6]) turned out to be 1010 ± 639 nM; in the data set with S207D LysRS(ΔN65) [4] (setting [6]) it was 949 ± 148 nM.

B4: PBS/TLE105 (structured_RNA)
RNA: GGGCUCUGGUAACUAGAGAUCCCUCAGACCCUUUUAGUCAGUGUGGAAAAUCUCUAGCAGUGGCGCCCGAACAGGGACUUGAAAGCGAAAGUAAAGCCAGAGCCC
For the molecule B4, the Kd with WT LysRS(ΔN65) [3] (setting [7]) worked out at 330 ± 115 nM; with S207D LysRS(ΔN65) [4] (setting [7]), 315 ± 130 nM.

B5: PBS/TLE105:antiPBS18 (mixed)
RNA: GGGCUCUGGUAACUAGAGAUCCCUCAGACCCUUUUAGUCAGUGUGGAAAAUCUCUAGCAGUGGCGCCCGAACAGGGACUUGAAAGCGAAAGUAAAGCCAGAGCCC
DNA: GTCCCTGTTCGGGCGCCA
B5: the Kd with WT LysRS(ΔN65) [3] (setting [8]) came out at 240 ± 95 nM; with S207D LysRS(ΔN65) [4] (setting [8]), 417 ± 90 nM.

B6: PBS/TLE105:antiPBS18+6 (mixed)
RNA: GGGCUCUGGUAACUAGAGAUCCCUCAGACCCUUUUAGUCAGUGUGGAAAAUCUCUAGCAGUGGCGCCCGAACAGGGACUUGAAAGCGAAAGUAAAGCCAGAGCCC
DNA: GTCCCTGTTCGGGCGCCACTGCTA
As to B6, the Kd with WT LysRS(ΔN65) [3] (setting [9]) was 865 ± 379 nM; in the data set with S207D LysRS(ΔN65) [4] (setting [9]), 590 ± 182 nM.

The Kd is a measure of binding affinity in units of concentration.

The values above are taken from article PMC9315659.
